Experimental data reported in patent publication US20200024330A1.

Legend:
Assay in all cases: cell-based or functional assay
[1] = target: HIV-1 Env of isolate MGRM-Chronic-B-004 (HIV-1)
[2] = target: HIV-1 Env of isolate MG RM-A-007 (pseudovirus) (HIV-1)
[3] = target: HIV-1 Env of isolate MGRM-AE-004 (pseudovirus) (HIV-1)
[4] = target: HIV-1 Env of isolate 92WR024 (pseudovirus) (HIV-1)
[5] = target: HIV-1 Env of isolate MGRM-D-005 (subtype D), on pseudovirus (HIV-1)
[6] = target: HIV-1 Env of isolate MGRM-D-002 (subtype D), on pseudovirus (HIV-1)
[7] = target: HIV-1 Env of isolate 92UG005 (subtype D), on pseudovirus (HIV-1)
[8] = target: HIV-1 Env of isolate CAAN.A2 (HIV-1)
[9] = target: HIV-1 Env of isolate MGRM-AE-001 (pseudovirus) (HIV-1)
[10] = target: HIV-1 Env of isolate 92RW008 (clade A), on pseudovirus (HIV-1)
[11] = target: HIV-1 Env of isolate 92TH021 (pseudovirus) (HIV-1)
[12] = target: HIV-1 Env of isolate MG RM-A-006 (pseudovirus) (HIV-1)
[13] = target: HIV-1 Env of isolate MGRM-D-001 (subtype D), on pseudovirus (HIV-1)
[14] = target: HIV-1 Env of isolate MGRM-Chronic-B-008 (HIV-1)
[15] = target: HIV-1 Env of isolate 93UG077 (pseudovirus) (HIV-1)
[16] = target: HIV-1 Env of isolate 93TH305 (HIV-1)
[17] = target: HIV-1 Env of isolate MGRM-Chronic-B-002 (HIV-1)
[18] = target: HIV-1 Env of isolate MG RM-A-009 (pseudovirus) (HIV-1)
[19] = target: HIV-1 92RW020 envelope glycoprotein (Env) on pseudovirus (HIV-1)
[20] = target: HIV-1 Env of isolate APV_13 (HIV-1)
[21] = target: HIV-1 Env of isolate MG RM-A-010 (pseudovirus) (HIV-1)
[22] = target: HIV-1 Env of isolate MGRM-D-008 (subtype D), on pseudovirus (HIV-1)
[23] = target: HIV-1 Env of isolate MGRM-AE-003 (pseudovirus) (HIV-1)
[24] = target: HIV-1 Env of isolate CMU02 (pseudovirus) (HIV-1)
[25] = target: HIV-1 Env of isolate MG RM-A-008 (pseudovirus) (HIV-1)
[26] = target: HIV-1 Env of isolate 98CN006 (subtype CRF08 BC), on pseudovirus (HIV-1)
[27] = target: HIV-1 Env of isolate 92WR021 (pseudovirus) (HIV-1)
[28] = target: HIV-1 Env of isolate 94UG103 (pseudovirus) (HIV-1)
[29] = target: HIV-1 Env of isolate MGRM-AE-002 (pseudovirus) (HIV-1)
[30] = target: HIV-1 Env of isolate MG RM-A-005 (pseudovirus) (HIV-1)
[31] = target: HIV-1 Env of isolate MGRM-Chronic-B-001 (HIV-1)
[32] = target: HIV-1 Env of isolate 92UG114 (subtype D), on pseudovirus (HIV-1)
[33] = target: HIV-1 Env of isolate 92UG031 (pseudovirus) (HIV-1)
[34] = target: HIV-1 92BR020 envelope glycoprotein (Env) on pseudovirus (HIV-1)
[35] = target: HIV-1 Env of isolate MGRM-D-003 (subtype D), on pseudovirus (HIV-1)
[36] = target: HIV-1 Env of isolate 92UG001 (subtype D), on pseudovirus (HIV-1)
[37] = target: HIV-1 Env of isolate 92RW009 (clade A), on pseudovirus (HIV-1)
[38] = target: HIV-1 Env of isolate 92UG037 (pseudovirus) (HIV-1)
[39] = target: HIV-1 Env of isolate MG RM-A-012 (pseudovirus) (HIV-1)
[40] = target: HIV-1 Env of isolate JRFL (HIV-1)
[41] = target: HIV-1 Env of isolate MG RM-A-011 (pseudovirus) (HIV-1)
[42] = target: HIV-1 Env of isolate 92UG046 (subtype D), on pseudovirus (HIV-1)
[43] = target: HIV-1 Env of isolate MGRM-D-004 (subtype D), on pseudovirus (HIV-1)
[44] = target: HIV-1 Env of isolate 92BR020 (HIV-1)
[45] = target: HIV-1 Env of isolate MG RM-A-013 (pseudovirus) (HIV-1)
[46] = target: HIV-1 Env of isolate 6535.3 (HIV-1)
[47] = target: HIV-1 Env of isolate VLGCA1 (pseudovirus) (HIV-1)
[48] = target: HIV-1 Env of isolate APV_6 (HIV-1)
[49] = target: HIV-1 Env of isolate 93WR029 (pseudovirus) (HIV-1)
[50] = target: HIV-1 Env of isolate MG RM-A-014 (pseudovirus) (HIV-1)
[51] = target: HIV-1 Env of isolate APV_17 (HIV-1)
[52] = target: HIV-1 Env of isolate 92WR026 (pseudovirus) (HIV-1)
[53] = target: HIV-1 Env of isolate 98CN009 (subtype CRF07_BC), on pseudovirus (HIV-1)
[54] = target: HIV-1 Env of isolate 94 KE 105 (pseudovirus) (HIV-1)
[55] = target: HIV-1 Env of isolate MGRM-AE-006 (pseudovirus) (HIV-1)
[56] = target: HIV-1 Env of isolate MGRM-Chronic-B-003 (HIV-1)
[57] = target: HIV-1 Env of isolate 92WR020 (pseudovirus) (HIV-1)
[58] = target: HIV-1 Env of isolate 92UG024 (subtype D), on pseudovirus (HIV-1)
[59] = target: HIV-1 Env of isolate MGRM-AE-005 (pseudovirus) (HIV-1)

Sequence of 4995_P16 (PGT-145) (antibody) (VH): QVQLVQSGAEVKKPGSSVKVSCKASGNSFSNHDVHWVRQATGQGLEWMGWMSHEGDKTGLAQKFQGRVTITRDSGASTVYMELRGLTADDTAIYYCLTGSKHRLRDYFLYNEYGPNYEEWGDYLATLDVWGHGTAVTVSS
Sequence of 4995_P16 (PGT-145) (antibody) (VL): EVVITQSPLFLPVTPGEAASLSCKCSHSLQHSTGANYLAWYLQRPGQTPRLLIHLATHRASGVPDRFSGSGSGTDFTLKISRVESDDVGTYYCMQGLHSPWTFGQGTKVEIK
Sequence of 4970_K22 (PGT-144) (antibody) (VH): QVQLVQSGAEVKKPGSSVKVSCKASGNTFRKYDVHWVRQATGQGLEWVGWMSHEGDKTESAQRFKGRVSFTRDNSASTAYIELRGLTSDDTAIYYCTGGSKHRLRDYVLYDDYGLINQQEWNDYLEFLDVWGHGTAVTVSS
Sequence of 4970_K22 (PGT-144) (antibody) (VL): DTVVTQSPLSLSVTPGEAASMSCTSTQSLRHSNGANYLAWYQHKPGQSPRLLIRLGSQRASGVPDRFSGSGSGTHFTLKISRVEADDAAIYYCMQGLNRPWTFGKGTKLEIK

Substance: 4970_K22 (PGT-144) (antibody)
- IC50 [1]: 9.41 µg/mL
- IC50 (µg/mL), pseudovirus neutralization [2]: > 50 µg/mL
- IC50 (µg/mL), pseudovirus neutralization [3]: 0.104 µg/mL
- IC50 (µg/mL), pseudovirus neutralization [4]: 16.3 µg/mL
- IC50, pseudovirus neutralization [5]: 14.8 µg/mL
- IC50, pseudovirus neutralization [6]: > 50 µg/mL
- IC50, pseudovirus neutralization [7]: > 50 µg/mL
- IC50 [8]: > 50 µg/mL
- IC50 (µg/mL), pseudovirus neutralization [9]: > 50 µg/mL
- IC50, single-round pseudovirus neutralization [10]: > 50 µg/mL
- IC50 (µg/mL), pseudovirus neutralization [11]: 0.052 µg/mL
- IC50 (µg/mL), pseudovirus neutralization [12]: > 50 µg/mL
- IC50, pseudovirus neutralization [13]: > 50 µg/mL
- IC50 [14]: > 50 µg/mL
- IC50 (µg/mL), pseudovirus neutralization [15]: > 50 µg/mL
- IC50 [16]: > 50 µg/mL
- IC50 [17]: > 50 µg/mL
- IC50 (µg/mL), pseudovirus neutralization [18]: 2.83 µg/mL
- IC50 (ug/ml), neutralizing activity [19]: > 10 µg/mL
- IC50 [20]: > 50 µg/mL
- IC50 (µg/mL), pseudovirus neutralization [21]: 2.79 µg/mL
- IC50, pseudovirus neutralization [22]: 9.85 µg/mL
- IC50 (µg/mL), pseudovirus neutralization [23]: > 50 µg/mL
- IC50 (µg/mL), pseudovirus neutralization [24]: > 50 µg/mL
- IC50 (µg/mL), pseudovirus neutralization [25]: > 50 µg/mL
- IC50, pseudovirus neutralization [26]: > 50 µg/mL
- IC50 (µg/mL), pseudovirus neutralization [27]: > 50 µg/mL
- IC50 (µg/mL), pseudovirus neutralization [28]: > 50 µg/mL
- IC50 (µg/mL), pseudovirus neutralization [29]: > 50 µg/mL
- IC50 (µg/mL), pseudovirus neutralization [30]: 18.6 µg/mL
- IC50 [31]: > 50 µg/mL
- IC50, pseudovirus neutralization [32]: > 50 µg/mL
- IC50 (µg/mL), pseudovirus neutralization [33]: 2.17 µg/mL
- IC50 (ug/ml), neutralizing activity [34]: > 10 µg/mL
- IC50, pseudovirus neutralization [35]: > 50 µg/mL
- IC50, pseudovirus neutralization [36]: > 50 µg/mL
- IC50, single-round pseudovirus neutralization [37]: 0.893 µg/mL
- IC50 (µg/mL), pseudovirus neutralization [38]: 8.24 µg/mL
- IC50 (µg/mL), pseudovirus neutralization [39]: > 50 µg/mL
- IC50 [40]: > 50 µg/mL
- IC50 (µg/mL), pseudovirus neutralization [41]: > 50 µg/mL
- IC50, pseudovirus neutralization [42]: > 50 µg/mL
- IC50, pseudovirus neutralization [43]: > 50 µg/mL
- IC50 [44]: 44 µg/mL
- IC50 (µg/mL), pseudovirus neutralization [45]: > 50 µg/mL
- IC50 [46]: > 50 µg/mL
- IC50 (µg/mL), pseudovirus neutralization [47]: > 50 µg/mL
- IC50 [48]: > 50 µg/mL
- IC50 (µg/mL), pseudovirus neutralization [49]: 4.39 µg/mL
- IC50 (µg/mL), pseudovirus neutralization [50]: > 50 µg/mL
- IC50 [51]: 10.3 µg/mL
- IC50 (µg/mL), pseudovirus neutralization [52]: 32.7 µg/mL
- IC50, pseudovirus neutralization [53]: > 50 µg/mL
- IC50 (µg/mL), pseudovirus neutralization [54]: 0.29 µg/mL
- IC50 (µg/mL), pseudovirus neutralization [55]: > 50 µg/mL
- IC50 [56]: 7.41 µg/mL
- IC50 (µg/mL), pseudovirus neutralization [57]: > 50 µg/mL
- IC50, pseudovirus neutralization [58]: > 50 µg/mL
- IC50 (µg/mL), pseudovirus neutralization [59]: > 50 µg/mL

Substance: 4995_P16 (PGT-145) (antibody)
- IC50 [1]: 0.023 µg/mL
- IC50 (µg/mL), pseudovirus neutralization [2]: > 50 µg/mL
- IC50 (µg/mL), pseudovirus neutralization [3]: 0.006 µg/mL
- IC50 (µg/mL), pseudovirus neutralization [4]: 0.069 µg/mL
- IC50, pseudovirus neutralization [5]: 10.4 µg/mL
- IC50, pseudovirus neutralization [6]: > 50 µg/mL
- IC50, pseudovirus neutralization [7]: > 50 µg/mL
- IC50 [8]: 7.08 µg/mL
- IC50 (µg/mL), pseudovirus neutralization [9]: 20.9 µg/mL
- IC50, single-round pseudovirus neutralization [10]: 0.4 µg/mL
- IC50 (µg/mL), pseudovirus neutralization [11]: 0.013 µg/mL
- IC50 (µg/mL), pseudovirus neutralization [12]: > 50 µg/mL
- IC50, pseudovirus neutralization [13]: 0.56 µg/mL
- IC50 [14]: 1.9 µg/mL
- IC50 (µg/mL), pseudovirus neutralization [15]: > 50 µg/mL
- IC50 [16]: 0.032 µg/mL
- IC50 [17]: 3.67 µg/mL
- IC50 (µg/mL), pseudovirus neutralization [18]: 0.235 µg/mL
- IC50 [20]: 0.337 µg/mL
- IC50 (µg/mL), pseudovirus neutralization [21]: 0.028 µg/mL
- IC50, pseudovirus neutralization [22]: 0.025 µg/mL
- IC50 (µg/mL), pseudovirus neutralization [23]: 0.552 µg/mL
- IC50 (µg/mL), pseudovirus neutralization [24]: 1.43 µg/mL
- IC50 (µg/mL), pseudovirus neutralization [25]: > 50 µg/mL
- IC50, pseudovirus neutralization [26]: > 50 µg/mL
- IC50 (µg/mL), pseudovirus neutralization [27]: 1.62 µg/mL
- IC50 (µg/mL), pseudovirus neutralization [28]: 0.331 µg/mL
- IC50 (µg/mL), pseudovirus neutralization [29]: 1.87 µg/mL
- IC50 (µg/mL), pseudovirus neutralization [30]: 0.128 µg/mL
- IC50 [31]: 3.22 µg/mL
- IC50, pseudovirus neutralization [32]: 20.1 µg/mL
- IC50 (µg/mL), pseudovirus neutralization [33]: 3.22 µg/mL
- IC50, pseudovirus neutralization [35]: 0.006 µg/mL
- IC50, pseudovirus neutralization [36]: > 50 µg/mL
- IC50, single-round pseudovirus neutralization [37]: 0.026 µg/mL
- IC50 (µg/mL), pseudovirus neutralization [38]: 3.15 µg/mL
- IC50 (µg/mL), pseudovirus neutralization [39]: 0.23 µg/mL
- IC50 [40]: 30.4 µg/mL
- IC50 (µg/mL), pseudovirus neutralization [41]: 0.484 µg/mL
- IC50, pseudovirus neutralization [42]: > 50 µg/mL
- IC50, pseudovirus neutralization [43]: 10.9 µg/mL
- IC50 [44]: 1.05 µg/mL
- IC50 (µg/mL), pseudovirus neutralization [45]: 1.76 µg/mL
- IC50 [46]: > 50 µg/mL
- IC50 (µg/mL), pseudovirus neutralization [47]: 8.01 µg/mL
- IC50 [48]: 0.104 µg/mL
- IC50 (µg/mL), pseudovirus neutralization [49]: > 50 µg/mL
- IC50 (µg/mL), pseudovirus neutralization [50]: 1.36 µg/mL
- IC50 [51]: 0.488 µg/mL
- IC50 (µg/mL), pseudovirus neutralization [52]: 1.45 µg/mL
- IC50, pseudovirus neutralization [53]: 0.136 µg/mL
- IC50 (µg/mL), pseudovirus neutralization [54]: 1.32 µg/mL
- IC50 (µg/mL), pseudovirus neutralization [55]: > 50 µg/mL
- IC50 [56]: 0.045 µg/mL
- IC50 (µg/mL), pseudovirus neutralization [57]: 0.997 µg/mL
- IC50, pseudovirus neutralization [58]: 1.6 µg/mL
- IC50 (µg/mL), pseudovirus neutralization [59]: 0.967 µg/mL
